Laboratory results: patent publication US20150056222A1

Target: mouse PRLR on HEK293 cells (mouse) (UniProt Q08501)
Assay: FACS, HEK293/mPRLR cells

Sequence of mouse PRLR on HEK293 cells (mouse) (Q08501 20-608): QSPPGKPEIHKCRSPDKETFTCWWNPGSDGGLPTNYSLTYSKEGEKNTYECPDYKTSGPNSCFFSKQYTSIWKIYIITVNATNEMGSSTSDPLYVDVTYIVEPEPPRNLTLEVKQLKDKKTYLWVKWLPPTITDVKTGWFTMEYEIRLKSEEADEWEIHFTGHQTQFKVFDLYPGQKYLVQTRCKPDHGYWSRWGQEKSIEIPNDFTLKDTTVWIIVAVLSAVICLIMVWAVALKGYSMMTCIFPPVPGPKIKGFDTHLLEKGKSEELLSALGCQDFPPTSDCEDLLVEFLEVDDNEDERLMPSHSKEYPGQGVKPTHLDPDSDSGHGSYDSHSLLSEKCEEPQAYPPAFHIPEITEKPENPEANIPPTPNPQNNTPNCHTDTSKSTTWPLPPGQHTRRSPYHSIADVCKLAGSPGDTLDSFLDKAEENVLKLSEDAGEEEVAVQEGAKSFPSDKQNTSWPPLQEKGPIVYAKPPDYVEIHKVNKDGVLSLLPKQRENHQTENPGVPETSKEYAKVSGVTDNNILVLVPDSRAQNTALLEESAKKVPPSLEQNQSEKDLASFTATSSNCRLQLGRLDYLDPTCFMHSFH

B1: H1H6801P (antibody, human IgG1, V domains shown)
VH: QVQLQQSGPGLVKPSQTLSLTCVISGDSVSSNTAWNWVRQSPSRGLEWLGRTYYRSKWYNDYAVSVKSRITINPDTSKNQFSLLMNSVTPEDTAVYYCARVVRGLNYFDYWGQGTLVTVSS
VL: DIVMTQSPDSLAVSLGERATINCKSSQSVLYNSNNKNYLAWYQQKPGQPPKLLIYWSSSRESGVPDRFSGSGSGTDFTLTISGLQAEDVAIYYCQQYSTIPYTFGQGTKLEIK
With B1 the FACS Cell Binding (Fold Above Background) (fold above background) was 56.
